From article PMC11139899, “Structures of co-transcriptional RNA capping enzymes on paused transcription complex” (Nature Communications, 2024)

Target: Pol II stalk (RPB4-RPB7), S. scrofa (S. scrofa)
Assay: cryo-EM structure; PEC-RNGTT: phosphorylated Pol II, DNA-RNA scaffold with 17 nt 5′-triphosphate RNA, DSIF, RNGTT, 100 μM GMPPNP, NELF added stepwise; purified and crosslinked by GraFix; NELF seen in an Up and a Down state
Settings: both partners purified

binding result: binds
B1: RNA guanylyltransferase and 5′-phosphatase (RNGTT) (enzyme)
chain: not shown
notes: human RNGTT, full-length gene; TPase domain, linker, GTase domain with OB fold; Released from the IgG resin by on-column digestion; also called capping enzyme; CE; source: Expi293F, transfected, purified (IgG resin, on-column digestion, Mono Q); not shown: 4 × ProteinA, N-terminal, cleaved
